Source: the RNAGym collection of RNA variant scans (doi:10.7554/elife.80360)

B1: CPEB3 Ribozyme (parent)
chain: GGGGGCCACAGCAGAAGCGUUCACGUCGCGGCCCCUGUCAGAUUCUGGUGAAUCUGCGAAUUCUGCUGU

Variants of: B1
Assay: self-cleavage, relative activity (ratio to wild type); higher = more cleavage; co-transcriptional

Compared with G50A A60U, A51U C57G is lower in self-cleavage: 0.449 for the first, 0.238 for the second.

First: A51U C57U
Second: G50U C54U
The self-cleavage of the first is lower: 0.388 for the first, 0.968 for the second.

First: G50U C54A
Second: A52C U55G
The self-cleavage of the first is higher: 0.858 for the first, 0.56 for the second.

Going from A52C U55A to A52C U55C, the self-cleavage rises from 0.631 to 0.686.

Going from G50C C63U to G50C C63G, the self-cleavage falls from 0.97 to 0.738.

Going from G50C C63A to A52G U62G, the self-cleavage rises from 0.813 to 0.963.

Compared with A52G U62C, A52G U62A is lower in self-cleavage: 0.915 for the first, 0.871 for the second.

Compared with A51G U64C, A51G U64G is lower in self-cleavage: 0.949 for the first, 0.917 for the second.

Compared with A51G U64A, G50C U62C is lower in self-cleavage: 0.991 for the first, 0.763 for the second.

Going from G50C U62G to G50C U62A, the self-cleavage rises from 0.755 to 0.968.

Going from G50C G56U to G50C G56A, the self-cleavage falls from 0.842 to 0.831.

First: A51G U55C
Second: A51G U55G
The self-cleavage of the first is higher: 0.839 for the first, 0.63 for the second.

Compared with U49G C66G, U49G C66U is higher in self-cleavage: 0.908 for the first, 0.98 for the second.

Going from G50U A51U to G50U A51G, the self-cleavage rises from 0.995 to 1.01.

Compared with A51G A60G, A51G A60U is lower in self-cleavage: 0.939 for the first, 0.589 for the second.

Going from A51C U69C to A51C U69A, the self-cleavage falls from 1.08 to 1.05.

First: A51C U69G
Second: A51G G65C
The self-cleavage of the first is higher: 1.01 for the first, 0.715 for the second.

First: A51G G65U
Second: A51G G65A
The self-cleavage of the first is lower: 0.872 for the first, 0.948 for the second.

First: G50A U67A
Second: A51U U53C
The self-cleavage of the first is higher: 0.989 for the first, 0.863 for the second.

Compared with A51U U53G, G50A U61C is lower in self-cleavage: 0.825 for the first, 0.799 for the second.

First: G50A U61A
Second: A52G U61C
The self-cleavage of the first is lower: 0.862 for the first, 0.879 for the second.

Compared with G50C U61A, G50C U61C is lower in self-cleavage: 0.823 for the first, 0.762 for the second.

Going from G50C U61G to A52G G68A, the self-cleavage rises from 0.526 to 1.01.

Going from A52G G68C to A51C U64A, the self-cleavage falls from 0.975 to 0.866.

Going from A51C U64C to G50A G56A, the self-cleavage rises from 0.787 to 0.909.

Compared with A51C A59C, A51C A59U is higher in self-cleavage: 0.658 for the first, 0.742 for the second.

First: A51C A59G
Second: A51G G58C
The self-cleavage of the first is lower: 0.96 for the first, 1.01 for the second.

Compared with A51G G58U, A51U G58U is lower in self-cleavage: 1.01 for the first, 0.954 for the second.

Compared with A51G A52U, A51G A52C is higher in self-cleavage: 0.902 for the first, 0.94 for the second.

Going from A51G A59U to A51U C54G, the self-cleavage falls from 0.859 to 0.677.

Going from A51U C54U to A51U G68U, the self-cleavage rises from 0.932 to 1.01.

Compared with A51U G68A, A51U G68C is higher in self-cleavage: 0.999 for the first, 1 for the second.

Going from A51U C66U to A51U C66G, the self-cleavage falls from 0.981 to 0.752.

Going from A51U C66A to U49G G65C, the self-cleavage falls from 0.706 to 0.607.

First: U49G G65U
Second: G50U G56A
The self-cleavage of the first is lower: 0.787 for the first, 0.928 for the second.

Going from G50U G56U to A51U U67G, the self-cleavage rises from 0.91 to 1.

Going from A51U U67A to A51U U67C, the self-cleavage rises from 0.976 to 1.01.

Compared with G50U G68A, G50U G68C is higher in self-cleavage: 1.01 for the first, 1.03 for the second.

Compared with U49G C63G, U49G C63A is higher in self-cleavage: 0.907 for the first, 0.952 for the second.

Going from U49G C63U to G50C U64C, the self-cleavage falls from 0.994 to 0.823.

Compared with G50C U64G, G50A G68U is higher in self-cleavage: 0.844 for the first, 1.02 for the second.

Going from G50A G68C to A52G U64C, the self-cleavage falls from 1.02 to 0.912.

Going from A52G U64G to A52G U64A, the self-cleavage falls from 0.957 to 0.911.

Compared with A51U U61A, A51U U61G is lower in self-cleavage: 0.932 for the first, 0.772 for the second.

Compared with A51C G56A, A51C G56U is lower in self-cleavage: 0.856 for the first, 0.8 for the second.

Going from A52C U62A to A52C U62C, the self-cleavage falls from 0.882 to 0.811.

Compared with A51U G65U, A51U G65A is higher in self-cleavage: 0.765 for the first, 0.889 for the second.

First: G50C A52G
Second: G50C A52C
The self-cleavage of the first is higher: 0.985 for the first, 0.946 for the second.

First: A51C C57A
Second: A51C C57U
The self-cleavage of the first is lower: 0.294 for the first, 0.338 for the second.

First: A52C U67A
Second: G50A C54A
The self-cleavage of the first is higher: 0.963 for the first, 0.81 for the second.

First: U49G U64A
Second: A51C U61A
The self-cleavage of the first is higher: 0.985 for the first, 0.813 for the second.

First: G50A U62G
Second: G50A U62A
The self-cleavage of the first is lower: 0.959 for the first, 0.986 for the second.

First: G50A U62C
Second: G50U C63U
The self-cleavage of the first is lower: 0.949 for the first, 0.974 for the second.

First: G50U C63A
Second: G50C U69G
The self-cleavage of the first is lower: 0.874 for the first, 1.06 for the second.

Compared with G50C U69A, G50C U55G is lower in self-cleavage: 0.978 for the first, 0.685 for the second.

Compared with G50C U55A, G50C U55C is lower in self-cleavage: 0.794 for the first, 0.486 for the second.

First: A52G G65A
Second: G50A A51U
The self-cleavage of the first is lower: 0.945 for the first, 0.987 for the second.

First: G50A A51G
Second: A51G
The self-cleavage of the first is lower: 0.978 for the first, 0.994 for the second.

First: A51C
Second: A51U
The self-cleavage of the first is lower: 0.989 for the first, 0.994 for the second.

Going from G50A A52C to G50A A52U, the self-cleavage falls from 1.04 to 0.993.

Compared with A51C C63U, A51C C63A is lower in self-cleavage: 0.942 for the first, 0.748 for the second.

Going from A52C C57G to A52C U64C, the self-cleavage rises from 0.26 to 0.842.

Compared with A52C U64G, G50U U61C is higher in self-cleavage: 0.829 for the first, 0.841 for the second.

First: G50U U61A
Second: G50U U61G
The self-cleavage of the first is higher: 0.97 for the first, 0.857 for the second.

First: U49G U67A
Second: U49G U67G
The self-cleavage of the first is lower: 1.04 for the first, 1.05 for the second.

Going from G50U A60U to A51U U62G, the self-cleavage rises from 0.515 to 0.868.

Compared with A51U U62A, A51U U62C is lower in self-cleavage: 0.931 for the first, 0.892 for the second.

Going from U49G G68U to A52C C63U, the self-cleavage falls from 1.01 to 0.973.

First: A52C C63G
Second: A51G U61A
The self-cleavage of the first is lower: 0.688 for the first, 0.833 for the second.

Going from A51G U61G to A52G A60C, the self-cleavage falls from 0.85 to 0.336.

Going from A52G A60G to A51U C63U, the self-cleavage rises from 0.922 to 0.996.

Going from A51U C63G to G50C G68C, the self-cleavage rises from 0.815 to 0.964.

Compared with G50C G68U, A52G C63A is lower in self-cleavage: 0.973 for the first, 0.907 for the second.

Going from A52G C63U to A52G C63G, the self-cleavage falls from 1 to 0.865.

Going from G50C G58U to G50C G58C, the self-cleavage falls from 0.995 to 0.963.

First: A51C C54U
Second: A51C C54G
The self-cleavage of the first is higher: 0.928 for the first, 0.585 for the second.

First: A52G U67A
Second: A52G C57U
The self-cleavage of the first is higher: 1 for the first, 0.407 for the second.

Compared with A52G C57G, U49G U55G is higher in self-cleavage: 0.23 for the first, 0.819 for the second.

Going from U49G U55C to G50C G65C, the self-cleavage falls from 0.814 to 0.585.

Going from G50C G65A to U49G U62C, the self-cleavage rises from 0.885 to 0.923.

First: U49G U62G
Second: U49G U62A
The self-cleavage of the first is lower: 0.898 for the first, 0.937 for the second.

Compared with U49G C57A, U49G C57G is lower in self-cleavage: 0.425 for the first, 0.284 for the second.

Going from U49G C57U to G50A U69G, the self-cleavage rises from 0.282 to 1.06.

G50A U69C showed a self-cleavage of 1.07.
